For this assay, the system named is aleurone cell development. Put plainly: Chemical genetics with in vitro cultured endosperm expressing Ltp2-driven ZsYellow in aleurone cells. In kind it is cell-based, maize. To be noted: in vitro endosperm cultures in liquid proliferation medium, 96 well plates; predicted result. As for the experimental part: In vitro cultured endosperm produced by the methods of the present invention and that express the ZsYellow fluorescent protein in aleurone cells under the control of the Ltp2 promoter are plated in 96 well microtiter plates with one endosperm added per well in liquid proliferation medium. To each well, a candidate chemical to be evaluated is added. The effect of the chemical on aleurone cell development is evaluated, for example, as the loss of aleurone cell identity as detected as lack of yellow fluorescence, either on the whole surface of the in vitro cultured endosperm or in patches on the surface. For example, a chemical genetics approach can be used to assess the function of the Dek1 gene product. The defective kernel 1 (dek1) gene is required for aleurone cell development in the endosperm of maize grains and this gene encodes a membrane protein of the calpain gene superfamily (Lid et al. (2002) Proc. Natl. Acad. Sci. USA. 99(8):5460-5465). Using mutant sector analysis, it has been shown that, if an aleurone cell looses the Dek1 gene function, the cell loses its aleurone cell identity and converts to a starchy endosperm cell fate (Becraft et al. (2000) Development 127:4039-4048). n this example, in vitro endosperm cultures are exposed to the calpain inhibitor calpastatin by the method described above.

B1: calpastatin (protein, UniProt P20810 1-708, looked up)
Calpastatin: MNPTETKAIPVSQQMEGPHLPNKKKHKKQAVKTEPEKKSQSTKLSVVHEKKSQEGKPKEHTEPKSLPKQASDTGSNDAHNKKAVSRSAEQQPSEKSTEPKTKPQDMISAGGESVAGITAISGKPGDKKKEKKSLTPAVPVESKPDKPSGKSGMDAALDDLIDTLGGPEETEEENTTYTGPEVSDPMSSTYIEELGKREVTIPPKYRELLAKKEGITGPPADSSKPIGPDDAIDALSSDFTCGSPTAAGKKTEKEESTEVLKAQSAGTVRSAAPPQEKKRKVEKDTMSDQALEALSASLGTRQAEPELDLRSIKEVDEAKAKEEKLEKCGEDDETIPSEYRLKPATDKDGKPLLPEPEEKPKPRSESELIDELSEDFDRSECKEKPSKPTEKTEESKAAAPAPVSEAVCRTSMCSIQSAPPEPATLKGTVPDDAVEALADSLGKKEADPEDGKPVMDKVKEKAKEEDREKLGEKEETIPPDYRLEEVKDKDGKPLLPKESKEQLPPMSEDFLLDALSEDFSGPQNASSLKFEDAKLAAAISEVVSQTPASTTQAGAPPRDTSQSDKDLDDALDKLSDSLGQRQPDPDENKPMEDKVKEKAKAEHRDKLGERDDTIPPEYRHLLDDNGQDKPVKPPTKKSEDSKKPADDQDPIDALSGDLDSCPSTTETSQNTAKDKCKKAASSSKAPKNGGKAKDSAKTTEETSKPKDD
As for B1, the “effect on aleurone cell identity (yellow fluorescence on endosperm surface)” value is reported as “lack of fluorescence in spot on the surface”.

The record behind these values is patent US20060123518A1, “Methods for culturing cereal endosperm” (Pioneer Hi-Bred International, Inc., priority 2004, published 2006).
